Test results from the supplement of paper PMC10567573.

B1: TRIM63 (parent)
chain: FRCPTCRHEVIMDRHGVYGLQRNL

Variants of: B1
Assay: protein stability index of a GFP-peptide fusion (GPS, HEK-293T) (PSI 1-6); higher = more stable
Settings: c terminus: a fixed tail appended
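Note: lentivirally expressed fusions sorted by FACS into six bins by GFP to DsRed ratio, PSI derived from sequencing read proportions per bin multiplied by bin number.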

Variant | protein stability index
FRCPTCRHEVIMDRHGVYSLQRNL [G19S] | 2.21
FRCPTCRHEVIMDRHGVYPLQRNL [G19P] | 2.25
FRCPTCRHEVIMDRHGVYLLQRNL [G19L] | 1.47
FRCPTCRHEVIMDRHGVYDLQRNL [G19D] | 1.67
FRCPTCRHEVIMDRHGVYVLQRNL [G19V] | 2.14
FRCPTCRHEVIMDRHGVYRLQRNL [G19R] | 2.31
FRCPTCRHEVIMDRHGVYILQRNL [G19I] | 1.92
FRCPTCRHEVIMDRHGVYCLQRNL [G19C] | 2.57
FRCPTCRHEVIMDRHGVYQLQRNL [G19Q] | 2.46
FRCPTCRHEVIMDRHGVYELQRNL [G19E] | 1.86
FRCPTCRHEVIMDRHGVYNLQRNL [G19N] | 2.21
FRCPTCRHEVIMDRHGVYTLQRNL [G19T] | 2.8
FRCPTCRHEVIMDRHGVYYLQRNL [G19Y] | 2.92
FRCPTCRHEVIMDRHGVYALQRNL [G19A] | 2.7
FRCPTCRHEVIMDRHGVYMLQRNL [G19M] | 1.98
FRCPTCRHEVIMDRHGVYFLQRNL [G19F] | 2.28
FRCPTCRHEVIMDRHGVYWLQRNL [G19W] | 3.11
FRCPTCRHEVIMDRHGVYKLQRNL [G19K] | 2.07
FRCPTCRHEVIMDRHGVYHLQRNL [G19H] | 2.51
FRCPTCRHEVIMDRHVVYGLQRNL [G16V] | 1.69
FRCPTCRHEVIMDRHQVYGLQRNL [G16Q] | 2.33
FRCPTCRHEVIMDRHFVYGLQRNL [G16F] | 2.65
FRCPTCRHEVIMDRHSVYGLQRNL [G16S] | 1.97
FRCPTCRHEVIMDRHLVYGLQRNL [G16L] | 2.21

Variant | protein stability index
FRCPTCRHEVIMDRHPVYGLQRNL [G16P] | 2.25
FRCPTCRHEVIMDRHWVYGLQRNL [G16W] | 2.31
FRCPTCRHEVIMDRHIVYGLQRNL [G16I] | 2.15
FRCPTCRHEVIMDRHRVYGLQRNL [G16R] | 1.83
FRCPTCRHEVIMDRHDVYGLQRNL [G16D] | 2.47
FRCPTCRHEVIMDRHKVYGLQRNL [G16K] | 2.39
FRCPTCRHEVIMDRHMVYGLQRNL [G16M] | 2.15
FRCPTCRHEVIMDRHTVYGLQRNL [G16T] | 1.65
FRCPTCRHEVIMDRHNVYGLQRNL [G16N] | 2.2
FRCPTCRHEVIMDRHAVYGLQRNL [G16A] | 2.15
FRCPTCRHEVIMDRHHVYGLQRNL [G16H] | 2.34
FRCPTCRHEVIMDRHCVYGLQRNL [G16C] | 2.42
FRCPTCRHEVIMDRHEVYGLQRNL [G16E] | 1.87
FRCPTCRHEVIMDRHYVYGLQRNL [G16Y] | 2.49
FRCPTCRHEVIMDRHGVYGLQRTL [N23T] | 1.67
FRCPTCRHEVIMDRHGVYGLQRKL [N23K] | 2.04
FRCPTCRHEVIMDRHGVYGLQRVL [N23V] | 2.96
FRCPTCRHEVIMDRHGVYGLQRRL [N23R] | 2.54
FRCPTCRHEVIMDRHGVYGLQRML [N23M] | 1.47
FRCPTCRHEVIMDRHGVYGLQRSL [N23S] | 2.14
FRCPTCRHEVIMDRHGVYGLQRDL [N23D] | 2.55
FRCPTCRHEVIMDRHGVYGLQRFL [N23F] | 2.02
FRCPTCRHEVIMDRHGVYGLQRWL [N23W] | 2.79
FRCPTCRHEVIMDRHGVYGLQRHL [N23H] | 2.5

Variant | protein stability index
FRCPTCRHEVIMDRHGVYGLQRGL [N23G] | 2.82
FRCPTCRHEVIMDRHGVYGLQRAL [N23A] | 1.79
FRCPTCRHEVIMDRHGVYGLQRCL [N23C] | 2.2
FRCPTCRHEVIMDRHGVYGLQRQL [N23Q] | 2.67
FRCPTCRHEVIMDRHGVYGLQRIL [N23I] | 1.89
FRCPTCRHEVIMDRHGVYGLQRYL [N23Y] | 1.25
FRCPTCRHEVIMDRHGVYGLQREL [N23E] | 2.05
FRCPTCRHEVIMDRHGVYGLQRLL [N23L] | 1.7
FRCPTCRHEVIMDRHGVYGLQRPL [N23P] | 1.56
FRCPTCRHEVIMDRHGVTGLQRNL [Y18T] | 2.69
FRCPTCRHEVIMDRHGVMGLQRNL [Y18M] | 3.62
FRCPTCRHEVIMDRHGVEGLQRNL [Y18E] | 3.06
FRCPTCRHEVIMDRHGVAGLQRNL [Y18A] | 1.98
FRCPTCRHEVIMDRHGVKGLQRNL [Y18K] | 1.98
FRCPTCRHEVIMDRHGVIGLQRNL [Y18I] | 1.86
FRCPTCRHEVIMDRHGVWGLQRNL [Y18W] | 1.94
FRCPTCRHEVIMDRHGVHGLQRNL [Y18H] | 1.87
FRCPTCRHEVIMDRHGVFGLQRNL [Y18F] | 2.13
FRCPTCRHEVIMDRHGVQGLQRNL [Y18Q] | 3.53
FRCPTCRHEVIMDRHGVCGLQRNL [Y18C] | 2.06
FRCPTCRHEVIMDRHGVPGLQRNL [Y18P] | 2.23
FRCPTCRHEVIMDRHGVRGLQRNL [Y18R] | 2.08
FRCPTCRHEVIMDRHGVGGLQRNL [Y18G] | 2.31
FRCPTCRHEVIMDRHGVSGLQRNL [Y18S] | 2.62

Variant | protein stability index
FRCPTCRHEVIMDRHGVVGLQRNL [Y18V] | 1.67
FRCPTCRHEVIMDRHGVDGLQRNL [Y18D] | 1.73
FRCPTCRHEVIMDRHGVLGLQRNL [Y18L] | 2.54
FRCPTCRHEVIMDRAGVYGLQRNL [H15A] | 1.67
FRCPTCRHEVIMDRWGVYGLQRNL [H15W] | 2.11
FRCPTCRHEVIMDRSGVYGLQRNL [H15S] | 2.44
FRCPTCRHEVIMDRCGVYGLQRNL [H15C] | 2.32
FRCPTCRHEVIMDRMGVYGLQRNL [H15M] | 2.71
FRCPTCRHEVIMDREGVYGLQRNL [H15E] | 2.43
FRCPTCRHEVIMDRGGVYGLQRNL [H15G] | 2.12
FRCPTCRHEVIMDRVGVYGLQRNL [H15V] | 3.01
FRCPTCRHEVIMDRFGVYGLQRNL [H15F] | 1.67
FRCPTCRHEVIMDRYGVYGLQRNL [H15Y] | 2.49
FRCPTCRHEVIMDRTGVYGLQRNL [H15T] | 2.46
FRCPTCRHEVIMDRNGVYGLQRNL [H15N] | 2.13
FRCPTCRHEVIMDRLGVYGLQRNL [H15L] | 2.17
FRCPTCRHEVIMDRDGVYGLQRNL [H15D] | 2.08
FRCPTCRHEVIMDRRGVYGLQRNL [H15R] | 1.48
FRCPTCRHEVIMDRIGVYGLQRNL [H15I] | 2.19
FRCPTCRHEVIMDRKGVYGLQRNL [H15K] | 2.16
FRCPTCRHEVIMDRQGVYGLQRNL [H15Q] | 3.54
FRCPTCRHEVIMDRPGVYGLQRNL [H15P] | 2.66
